The chains are these.
B1: Fab fragment of antibody 992 (Fab, V domains shown, not shown: small tags and cut ends)
VH: EVQLQQPGSELVRPGASVKLSCKASGYTFTSYWMHWVKQRPGQGLEWIGNIYPGSRSTNYDEKFKSKATLTVDTSSSTAYMQLSSLTSEDSAVYYCTRNGDYYVSSGDAMDYWGQGTSVTVS
VL: DIQMTQTTSSLSASLGDRVTISCRTSQDIGNYLNWYQQKPDGTVKLLIYYTSRLHSGVPSRFSGSGSGTDFSLTINNVEQEDVATYFCQHYNTVPPTFGGGTKLEIKR
B2: Fab fragment of antibody 1030 (Fab, V domains shown, not shown: small tags and cut ends)
VH: EVQLVESGGGLVKPGGSLKLSCAASGFTFSSYALSWVRQTPERRLEWVASISGVGSTYFPDSVKGRFTMSRDNARNILYLQMSSLRSEDTAMYYCARGSDGYFYAMDYWGQGTSVTVS
VL: DIVLTQSPASLAVSLGQRATISCRASKSVSTSGYSFMHWYQLKPGQPPKLLIYLASNLESGVPARFSGSGSGTDFTLNIHPVEEEDAATYYCQHSREFPLTFGGGTKLEIKR
B3: Fab fragment of antibody 1024 (Fab, V domains shown, not shown: small tags and cut ends)
VH: QVQLQQPGAELVEPGGSVKLSCKASGYTFTSHWMHWVKQRPGQGLEWIGEINPSSGRNNYNEKFKSKATLTVDKSSSTAYMQFSSLTSEDSAVYYCVRYYGYDEAMDYWGQGTSVTVS
VL: DIVMTQAAFSNPVTLGTSASISCRSSKSLLHSNGITYLYWYLQKPGQSPQLLIYQMSNLASGVPDRFSSSGSGTDFTLRISRVEAEDVGVYYCAQNLELPYTFGGGTKLEIKR
B4: antibody 1347 (antibody, human IgG1, kappa, V domains shown)
VH: QVQLKESGPGLVAPSQSLSITCTVSGFSLTGHGVNWVRQPPGKGLEWLGMIWGDGSTDYNSTLKSRLSISKDNSKSQVFLKMNSLQTDDTARYYCARGYGYLYYFDYWGQGTTLTVSS
VL: ENVLTQSPAIMSASPGEKVTMTCRASSSVSSSYLHWYQQKSGASPKLWIYSTSNLASGVPARFSGSGSGTSYSLTVNSVETEDAATYYCHQYSGFPFTFGSGTKLELKR
notes: Chimeric mouse/human IgG1 kappa
B5: antibody 1030 (antibody, human IgG1, kappa, V domains shown)
VH: EVQLVESGGGLVKPGGSLKLSCAASGFTFSSYALSWVRQTPERRLEWVASISGVGSTYFPDSVKGRFTMSRDNARNILYLQMSSLRSEDTAMYYCARGSDGYFYAMDYWGQGTSVTVSS
VL: B2 VL
notes: as for B4
B6: antibody 992 (antibody, human IgG1, kappa, V domains shown)
VH: EVQLQQPGSELVRPGASVKLSCKASGYTFTSYWMHWVKQRPGQGLEWIGNIYPGSRSTNYDEKFKSKATLTVDTSSSTAYMQLSSLTSEDSAVYYCTRNGDYYVSSGDAMDYWGQGTSVTVSS
VL: B1 VL
notes: Chimeric mouse variable / human IgG1 kappa; the light chain entry includes the human kappa constant region; the end of the range is counted on the printed entry
B7: antibody 1024 (antibody, human IgG1, kappa, V domains shown)
VH: QVQLQQPGAELVEPGGSVKLSCKASGYTFTSHWMHWVKQRPGQGLEWIGEINPSSGRNNYNEKFKSKATLTVDKSSSTAYMQFSSLTSEDSAVYYCVRYYGYDEAMDYWGQGTSVTVSS
VL: B3 VL
notes: as for B4
B8: antibody 1261 (antibody, human IgG1, kappa, V domains shown)
VH: EVQLVESGGGLVKPGGSLKLSCAVSGFTFSSYVMSWVRQTPEKRLEWVATITSGGRNIYYLDSVKGRFTISRDNAKNTLYLQMSSLRSEDTAMYYCARHEDYRYDGYYAMDYWGQGTSVTVSS
VL: QIVLTQSPAIMSASPGEKVTITCSASSSVSYMHWFQQKPGTSPKLWIYSTSNLASGVPARFSGSGSGTSYSLTISRMEAEDAATYYCQQRSSYPYTFGGGTKLELKR
notes: as for B4
B9: antibody 1284 (antibody, human IgG1, kappa, V domains shown)
VH: QVQLQQPGAELVKPGASVKLSCKASGYTFTSDWMHWMKQRPGQGLEWIGEINPSNGRSSYNEKFKSKATLTVDKSSSTAYMQLSSLTSEDSAVYYCARIGGIYVETYWGQGTLVTVSS
VL: DIVLTQSPASLAVSLGQRATISCRASQSVSTSTYSYMHWYQQKSGQPPKLLIKYASNLESGVPARFSGSGSGTDFTLNIHPVEEEDTATYYCQHSWEIPWTFGGGTKLEIKR
notes: as for B4
B10: antibody 1260 (antibody, human IgG1, kappa, V domains shown)
VH: QVQLKESGPGLVAPSQSLSITCTVSGFSLTTYGVHWVRQPPGKGLEWLGVIWAGGSTNYNSALMSRLSIKKDNSKSQVFLKMNSLQTDDTAMYYCARAYGYNFDYWGQGTTLTVSS
VL: DIQMTQTTSSLSASLGDRVTISCSASQGITNYLNWYQQKPDGTVKLLIYYSSSLHSGVPSRFSGSGSGTDYSLTISNLEPEDIATYYCQQYSEIPYTFGGGTKLELKR
notes: as for B4
B11: antibody 1320 (antibody, human IgG1, kappa, V domains shown)
VH: QVQLQQPGAELVKPGASMKLSCKASGYTFTNYWMHWVKQRPGQGLEWIGEINPSNGRTNYNEKFKSKATLTVDKSSSTAYMQLSSLTSEDSGVYYCAKGGNYYDYDWDYWGQGTTLTVSS
VL: B10 VL with G28D, T30S, Y50H, S51T, S53T, E93K, I94L, Y96W, L106I
notes: as for B4
B12: antibody 1254 (antibody, human IgG1, kappa, V domains shown)
VH: EVQLVESGGGLVKPGGSLKLSCAASGFAYSTYDMSWVRQTPEKRLEWVAYISSGGDAAYYPDTVKGRFTISRDNAKNTLYLQMSSLKSEDTAMYYCARSRYGNYGDAMDYWGQGTSVTVSS
VL: DVVMTQTPLSLPVSLGDQASISCRSSQSLVHSNGNTYLHWYLQKPGQSPKLLLYKVSNRFSGVPDRFSGSGSGTDFTLKISRVESEDLGVYFCSQNTHVYTFGGGTKLEIKR
notes: Chimeric mouse/human IgG1 kappa; also called mAb 1254

Numbering of substitutions follows the chain as printed.

One test concerns the target T1, human EGFR expressed on cells (human, UniProt P00533 25-1210).
T1 construct: whole, on cells; also called EGFR on A431-NS cells; full length Human EGFR on transfected CHO cells
Nature of the test: cell ELISA on A431-NS cells (Fab ED50) against SPR KD.
Turning to B1, the “fold difference of the monovalent functional affinity on cells against the value tested with BIAcore” value amounted to 15 fold.

Another test has as its target T2, EGFR-Fc (recombinant EGFR ECD-Fc chimera, R&D Systems 344-ER) (human, UniProt P00533 25-645).
T2 construct: Bought; also called immobilized Human EGFR ECD; not shown: Human IgG Fc
Nature of the test: SPR (Biacore 2000): EGFR ECD-Fc immobilised on CM5, Fab injected. As to the method: To investigate possible differences in antigen presentation between EGFR ECD presented in soluble and immobilized form, a new affinity measurement on an immobilized chimeric EGFR receptor antigen termed EGFR-Fc (R&D Systems, 344-ER), consisting of Human EGFR ECD fused to Human IgG Fc was performed.
For B2, the t1/2 stood at 57.5 min.
On to B1, for which the t1/2 stood at 0.2 min.
As to B3, the t1/2 came to 2.3 min.

The next test addresses T2, EGFR-Fc (recombinant EGFR ECD-Fc …). Nature of the test: SPR, Fab on immobilised EGFR ECD-Fc against IgG with soluble EGFR ECD.
Regarding B2, the “fold higher affinity against immobilized antigen as compared to soluble receptor” value worked out at 10 fold.

For a further test, the target named is T3, recombinant human EGFR extracellular domain with 6xHis (human, UniProt P00533 25-645).
T3 construct: In-house protein; also called 6xHis EGFR ECD; soluble human EGFR ECD; not shown: 6xHis tag
Nature of the test: SPR; EGFR ECD saturated with mix N=6: 1261+1347+992+1024+1030+1361. Here is the method:
SPR analysis was performed on a Biacore 3000 machine containing four flow cells. A CM5 Biacore chip was conjugated with 10,000 Resonance units (Ru) polyclonal anti-His antibody to flow cells 1-4 according to the manufacturer's instructions. […] Immediately after antigen injection the maximal binding of the Anti-EGFR mAb without competition was established in each flow cell during a reference run. Briefly 5 μl antibody at a concentration of 40 μg/ml was injected over all flow cells with captured EGFR followed by stripping of the antibody/antigen complex with a low pH acid wash (10 sec. contact time with 10 mM Glycine-HCl, pH2). After the determination of Anti-EGFR antibody maximal binding to each flow cell, a competition run was performed during the same Biacore cycle. Flow cells were first saturated with EGFR ECD antigen followed by injection of different reference antibodies or Anti-EGFR antibodies into separate flow cells using the same antigen saturating conditions as outlined above. This step was immediately followed by a second injection of Anti-EGFR antibody over the flow cell saturated with EGFR antigen and competition antibody to minimize the dissociation of either antigen or blocking antibody. Then the antibody/antigen complexes were stripped off with a low pH acid wash (10 sec. contact time with 10 mM Glycine-HCl, pH 2) and the whole cycle beginning with the reference run was repeated with a new Anti-EGFR antibody. The degree of inhibition of tested Anti-EGFR antibodies were determined by comparing the Ru max value of the individual Anti-EGFR antibody before and after competition by introduction of report points recorded two seconds before and after injection of each sample.
For the molecule B4, the “Inhibition Sample mAb” value stood at 80%.
Same read-out and setting: under B5 stands 87%; under B6, 116%; under B7, 113%.
Regarding B8, the “Inhibition Sample mAb” value stood at 95%.

The target of a further test is T3, recombinant human EGFR extracellular …. The test is described as follows: SPR (BIAcore 2000): IgG captured by anti-human Fc, soluble EGFR ECD injected. As to the method: Kinetic analysis of the full length IgG antibodies of the invention was performed on a BIAcore 2000, employing an assay as described in (Canziani, Klakamp, et al. 2004, Anal. Biochem, 325:301-307) allowing measurement of monovalent affinities of whole IgG molecules against soluble antigen. […] The chip surface was regenerated in between cycles by stripping the captured antibody/antigen complexes with a 10 second injection of 100 mM H₃PO₄. […] The association rate constant (ka) and dissociation constant (kd) were evaluated globally from the generated sensograms with the BIA evaluation software 4.1 provided by the manufacturer.
For B9, the t1/2 amounted to 78.1 min.
On the same count and under the same terms, under B4 stands 22.9 min; under B5, 31.1 min.
As to B10, the t1/2 was 74.1 min.
On the same count and under the same terms, the result for B11 reads 4.1 min; that for B6, 0.2 min.
Take B7: the t1/2 amounted to 2.4 min.
As to B12, the t1/2 came to 11.3 min.
Turning to B8, the t1/2 worked out at 3.6 min.

For another test, the target named is T4, Wild type full length EGFR purified from A431 cells (human, UniProt P00533 25-1210).
T4 construct: mature; purified from cells and coated on ELISA wells; also called purified full length EGFR; Sigma E3641
Nature of the test: indirect ELISA, Fab on coated purified full length EGFR, anti-human Fab HRP.
Take B2: the “EC50 (read off the curve)” value was roughly 5 nM.

In the next test the target is T4, Wild type full length EGFR purified …. The test is described as follows: ELISA: antibody titrated on coated full length EGFR, then biotinylated EGF (blocked ligand), streptavidin-HRP. Here is the method:
The next morning wells were washed twice with PBS-T and blocked for one hour with 150 μl PBS-T-1% BSA at room temperature, followed by wash twice in PBS-T. Next 80 μl of serially diluted Anti-EGFR antibodies and control antibodies were added to wells and incubated 30 min at room temperature. […] Subsequently wells were washed five times with PBS-T, followed by incubation with 100 μl/well Streptavidin-HRP secondary reagent diluted 1:1000 in blocking buffer and incubation at room temperature for 30 min. Finally wells were washed five times with PBS-T and plates were developed by adding 100 μL/well TMB substrate and incubated for 60 min. After incubation the reaction was stopped by addition of 1 M H₂SO₄; 100 μl/well and plates were read at OD 450 nm.
Take B10: the “IC50 (read off the curve)” value is roughly 40 ng mAb/ml.
On the same count and under the same terms, the result for B11 reads roughly 20 ng mAb/ml.

Source of the values: patent US20110229463A1 (SYMPHOGEN A S, published 2011).
